Assay results published in patent US20130130315A1 (ADVANCECOR, published 2013).

Key:
[1] = target: T1, CD133 protein (UniProt O43490 20-865, limits assumed); experiment: competition cellular ELISA on fixed AC133/293 cells; competitor of 2 nM W6B3H10 mAb
T1 construct: whole, on cells; Presented on AC133/293 cells: paraformaldehyde-fixed in the cellular ELISA, unfixed in the phage FACS; also called CD133 antigen; AC133
T1 sequence (looked up): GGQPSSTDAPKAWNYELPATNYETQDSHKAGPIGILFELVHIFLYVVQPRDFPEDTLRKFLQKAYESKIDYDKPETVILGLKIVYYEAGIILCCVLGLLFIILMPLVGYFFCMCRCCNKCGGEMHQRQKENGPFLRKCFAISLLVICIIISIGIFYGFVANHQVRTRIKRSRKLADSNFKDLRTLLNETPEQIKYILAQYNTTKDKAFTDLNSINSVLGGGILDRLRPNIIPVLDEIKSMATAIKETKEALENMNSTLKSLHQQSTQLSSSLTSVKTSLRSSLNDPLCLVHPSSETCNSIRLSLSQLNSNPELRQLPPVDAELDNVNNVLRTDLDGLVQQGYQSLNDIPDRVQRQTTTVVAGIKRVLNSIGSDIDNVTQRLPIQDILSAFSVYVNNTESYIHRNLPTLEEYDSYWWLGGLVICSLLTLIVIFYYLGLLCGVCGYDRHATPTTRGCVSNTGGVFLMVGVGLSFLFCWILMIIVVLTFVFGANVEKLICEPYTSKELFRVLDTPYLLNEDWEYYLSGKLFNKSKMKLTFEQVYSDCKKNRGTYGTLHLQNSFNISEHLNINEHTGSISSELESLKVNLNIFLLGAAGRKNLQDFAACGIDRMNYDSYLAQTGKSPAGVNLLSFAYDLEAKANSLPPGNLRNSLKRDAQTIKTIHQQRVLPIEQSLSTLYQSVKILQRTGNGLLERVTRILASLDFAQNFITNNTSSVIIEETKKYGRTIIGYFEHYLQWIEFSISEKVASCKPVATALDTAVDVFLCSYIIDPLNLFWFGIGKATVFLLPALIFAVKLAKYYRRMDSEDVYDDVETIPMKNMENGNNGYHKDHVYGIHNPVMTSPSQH
Method: (§1) 1×10⁵ cells in 0.2 ml of medium were added to each well and incubated o/n at 37° C., 5% CO₂ to allow cells to attach to the surface of the plate. The next day wells were washed once with 0.2 ml PBS and fixed with 0.1 ml 2% Paraformaldehyde (in PBS, pH 7.4) for 10-20 min at RT. Wells were washed with PBS-T (PBS+0.1% Tween-20) and blocked with either 1× RotiBlock or 3% milk in PBS-T for 1 hour at RT. After washing with PBS-T, serial dilutions of the respective antibody were added to the wells and incubated at RT for at least one hour while shaking. After washing with PBS-T, 0.1 ml of StrepMAb-Classic-HRP (1:10000 in PBS-T, lba BioTagnology, Göttingen, Germany) or of horseradish peroxidase linked anti-mouse IgG (1:10000 in PBS-T, Dianova, Hamburg, Germany) was added and incubated at RT for one hour with shaking. After washing with PBS-T, 0.1 ml of 1-Step Ultra TMB-ELISA substrate (Thermo Scientific, Braunschweig, Germany) was added and incubated until an adequate blue staining developed. To stop the reaction 0.1 ml 1 M H₂SO₄ was added to each well and absorbance at 450 nm and 595 nm as a reference was measured with an infinite F200 plate reader (TECAN, Männedorf, Switzerland). […] Signals were detected using an anti-mouse IgG-HRP antibody (1:10000 in PBS-T, Dianova, Hamburg, Germany).

[2] = target: T1, CD133 protein; experiment: cellular ELISA on fixed AC133/293 cells
Method: as §1, with “Germany). […]” for “Germany).”

[3] = target: T2, bovine collagen I (bovine, UniProt P02453 162-1217; P02465 80-1117, limits assumed); experiment: ELISA on immobilized bovine collagen I
T2 construct: also called immobilized collagen I; soluble collagen I
T2 sequence (P02453 162-1217 limits assumed, chain 1 of 2): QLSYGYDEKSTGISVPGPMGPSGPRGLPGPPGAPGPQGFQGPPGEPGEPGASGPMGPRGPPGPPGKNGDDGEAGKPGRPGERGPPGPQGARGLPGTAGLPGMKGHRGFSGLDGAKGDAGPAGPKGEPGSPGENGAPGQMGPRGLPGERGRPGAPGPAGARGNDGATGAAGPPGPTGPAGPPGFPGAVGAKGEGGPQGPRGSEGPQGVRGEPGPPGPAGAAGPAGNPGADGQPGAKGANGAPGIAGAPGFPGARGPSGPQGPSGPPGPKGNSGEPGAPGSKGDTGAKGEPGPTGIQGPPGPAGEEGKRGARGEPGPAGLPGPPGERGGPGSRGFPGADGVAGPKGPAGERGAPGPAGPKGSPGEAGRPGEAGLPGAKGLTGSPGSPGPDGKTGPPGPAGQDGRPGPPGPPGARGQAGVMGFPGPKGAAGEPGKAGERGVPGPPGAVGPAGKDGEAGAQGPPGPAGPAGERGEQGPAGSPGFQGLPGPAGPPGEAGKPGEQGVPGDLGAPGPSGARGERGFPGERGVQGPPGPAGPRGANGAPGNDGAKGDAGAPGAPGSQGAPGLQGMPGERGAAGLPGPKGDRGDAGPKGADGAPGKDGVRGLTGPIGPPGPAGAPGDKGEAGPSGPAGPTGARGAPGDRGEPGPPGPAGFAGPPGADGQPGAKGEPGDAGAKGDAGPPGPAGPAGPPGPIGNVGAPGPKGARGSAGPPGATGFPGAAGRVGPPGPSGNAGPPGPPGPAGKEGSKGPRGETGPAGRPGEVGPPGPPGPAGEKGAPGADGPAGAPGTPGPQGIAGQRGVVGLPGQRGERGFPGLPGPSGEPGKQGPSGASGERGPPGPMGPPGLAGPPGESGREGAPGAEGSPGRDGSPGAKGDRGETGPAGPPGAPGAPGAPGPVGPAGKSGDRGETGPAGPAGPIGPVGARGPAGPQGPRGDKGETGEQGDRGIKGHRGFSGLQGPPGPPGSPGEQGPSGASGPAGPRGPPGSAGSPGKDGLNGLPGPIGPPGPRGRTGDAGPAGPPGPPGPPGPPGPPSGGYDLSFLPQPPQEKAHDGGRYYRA
T2 sequence (P02465 80-1117 limits assumed, chain 2 of 2): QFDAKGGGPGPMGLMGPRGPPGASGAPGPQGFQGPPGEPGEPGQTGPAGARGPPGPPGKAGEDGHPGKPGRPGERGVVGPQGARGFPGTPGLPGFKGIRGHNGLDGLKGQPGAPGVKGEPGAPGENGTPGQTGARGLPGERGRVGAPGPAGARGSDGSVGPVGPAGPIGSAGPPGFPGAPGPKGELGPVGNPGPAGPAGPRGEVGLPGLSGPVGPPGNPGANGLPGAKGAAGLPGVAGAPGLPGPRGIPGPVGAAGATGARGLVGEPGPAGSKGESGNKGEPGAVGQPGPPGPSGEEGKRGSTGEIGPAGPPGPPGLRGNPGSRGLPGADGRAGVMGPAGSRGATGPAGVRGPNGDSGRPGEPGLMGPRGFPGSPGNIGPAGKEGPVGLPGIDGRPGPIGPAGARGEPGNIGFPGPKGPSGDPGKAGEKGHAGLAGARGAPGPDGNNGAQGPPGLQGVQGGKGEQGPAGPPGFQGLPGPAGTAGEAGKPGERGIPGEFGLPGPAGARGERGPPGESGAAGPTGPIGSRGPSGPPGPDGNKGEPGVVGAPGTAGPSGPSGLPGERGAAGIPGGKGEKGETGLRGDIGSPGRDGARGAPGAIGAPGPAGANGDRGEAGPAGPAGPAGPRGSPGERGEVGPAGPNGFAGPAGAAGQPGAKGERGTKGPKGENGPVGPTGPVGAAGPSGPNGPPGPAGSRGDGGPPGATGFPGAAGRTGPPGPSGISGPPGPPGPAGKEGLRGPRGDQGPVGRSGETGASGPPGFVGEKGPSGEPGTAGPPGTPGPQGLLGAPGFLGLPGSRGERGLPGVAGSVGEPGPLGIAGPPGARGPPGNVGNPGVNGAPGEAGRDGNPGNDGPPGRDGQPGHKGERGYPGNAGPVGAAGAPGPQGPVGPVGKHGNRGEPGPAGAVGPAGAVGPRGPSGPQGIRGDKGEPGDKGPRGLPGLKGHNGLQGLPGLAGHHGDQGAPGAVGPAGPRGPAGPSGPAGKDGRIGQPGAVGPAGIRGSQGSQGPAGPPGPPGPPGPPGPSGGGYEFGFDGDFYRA
Method: Fc-protein was used as negative control.
An Immulon 2 HB 96-well plate (NUNC, Rochester, N.Y.) was coated with 0.1 ml 1 μg/ml bovine collagen I in 15 mM Na₂CO3, 35 mM NaHCO3, pH 9.6 o/n at 4° C. Wells were washed with PBS-T, blocked with 0.1 ml 1× RotiBlock (Roth, Karlsruhe, Germany) in PBS-T for one hour and washed again before addition of 0.1 ml of threefold dilutions of fusion protein. After one hour incubation at RT with shaking, wells were washed with PBS-T. Wells were incubated with 0.1 ml anti-human IgG-HRP (Dianova, Hamburg, Germany) 1:10000 in PBS-T for one hour at RT with shaking. The plate was washed with PBS-T and incubated with 0.1 ml 1-Step Ultra TMB-ELISA (PIERCE, Rockford, Ill.). After blue staining had developed sufficiently, reactions were stopped by addition of 0.1 ml 1 M H₂SO₄. Absorbance was measured at 450 nm and 595 nm as a reference wavelength using an infinite F200 plate reader (TECAN, Männedorf, Switzerland). EC₅₀ values were calculated with Sigma Plot 11 using Four Parameter Logistic.

[4] = target: T3, CD133 protein (UniProt O43490 20-865); experiment: FACS; panel A, Median FI
T3 chain: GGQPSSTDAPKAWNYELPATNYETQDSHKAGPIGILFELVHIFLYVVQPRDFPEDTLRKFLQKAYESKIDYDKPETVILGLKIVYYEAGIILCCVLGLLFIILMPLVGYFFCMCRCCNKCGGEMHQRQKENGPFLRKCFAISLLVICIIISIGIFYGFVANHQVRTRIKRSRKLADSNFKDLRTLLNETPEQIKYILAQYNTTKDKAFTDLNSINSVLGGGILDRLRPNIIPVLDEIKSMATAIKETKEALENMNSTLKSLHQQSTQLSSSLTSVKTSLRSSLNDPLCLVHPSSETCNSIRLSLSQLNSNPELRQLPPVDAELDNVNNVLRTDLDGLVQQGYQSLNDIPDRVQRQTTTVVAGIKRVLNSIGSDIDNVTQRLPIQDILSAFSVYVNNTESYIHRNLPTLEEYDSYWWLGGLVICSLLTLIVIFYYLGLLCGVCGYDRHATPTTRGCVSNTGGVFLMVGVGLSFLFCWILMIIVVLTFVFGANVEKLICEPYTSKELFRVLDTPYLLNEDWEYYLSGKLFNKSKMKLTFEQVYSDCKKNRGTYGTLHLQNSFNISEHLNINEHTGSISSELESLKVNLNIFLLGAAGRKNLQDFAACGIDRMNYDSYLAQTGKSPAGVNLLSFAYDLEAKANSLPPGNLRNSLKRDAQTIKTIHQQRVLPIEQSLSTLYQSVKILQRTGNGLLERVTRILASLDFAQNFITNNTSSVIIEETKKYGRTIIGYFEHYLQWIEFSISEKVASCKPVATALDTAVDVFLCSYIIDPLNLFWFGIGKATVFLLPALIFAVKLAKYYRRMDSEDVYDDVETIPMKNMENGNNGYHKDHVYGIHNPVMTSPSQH

[5] = target: T3, CD133 protein; experiment: FACS; panel A, Geo-Mean FI
[6] = target: T1, CD133 protein; experiment: FACS of phage dilution series on AC133/293 cells, mean fluorescence index
[7] = target: T1, CD133 protein; experiment: competitive cellular ELISA on fixed AC133/293 cells; competitor of 2 nM W6B3H10 mAb
Method: as §1, with “Germany). […]” for “Germany).”

[8] = target: T1, CD133 protein; experiment: cellular ELISA, threefold dilution series on fixed AC133/293 cells
Method: as §1, with “Germany). […]” for “Germany).”

B1: fusion protein scFv-lh-GPVI-FcIgG2 (Fc fusion)
chain: DILMTQSPKSMSMSLGERVTLSCKASENVDTYVSWYQQKPEQSPKVLIYGASNRYTGVPDRFTGSGSATDFSLTISNVQAEDLADYHCGQSYRYPLTFGAGTKLELKGGGGSGGGGSGGGGSEVQLQQSGPDLMKPGASVKISCKASGYSFTNYYVHWVKQSLDKSLEWIGYVDPFNGDFNYNQKFKDKATLTVDKSSSTAYMHLSSLTSEDSAVYYCARGGLDWYDTSYWYFDVWGAGTAVTVSSQSGPLPKPSLQALPSSLVPLEKPVTLRCQGPPGVDLYRLEKLSSSRYQDQAVLFIPAMKRSLAGRYRCSYQNGSLWSLPSDQLELVATGVFAKPSLSAQPGPAVSSGGDVTLQCQTRYGFDQFALYKEGDPAPYKNPERWYRASFPIITVTAAHSGTYRCYSFSSRDPYLWSAPSDPLELVVTGTSVTPSRLPTEPPSSVAEFSEATAELTVSFTNKVFTTETSRSITTSPKESDSPAGPARQYYTKGNGGRVECPPCPAPPVAGPSVFLFPPKPKDTLMISRTPEVTCVVVDVSHEDPEVQFNWYVDGVEVHNAKTKPREEQFNSTFRVVSVLTVVHQDWLNGKEYKCKVSNKGLPAPIEKTISKTKGQPREPQVYTLPPSREEMTKNQVSLTCLVKGFYPSDIAVEWESNGQPENNYKTTPPMLDSDGSFFLYSKLTVDKSRWQQGNVFSCSVMHEALHNHYTQKSLSLSPGK
notes: also called parental fusion protein; mouse fusion protein
IC50 [1]: 3.1 nM
EC50 [2]: 0.21 nM
EC50 [3]: 6.3 nM

B2: phage clone 26 (humanized single chain antibody clone 26) (scFv)
scFv: DIQMTQSPKSLSASVGDRVTITCKASENVDTYVSWYQQKPGKAPKVLIYGASNRYTGVPSRFTGSGSATDFTLTISSLQPEDFATYYCGQSYRYPLTFAQGTKVEIKGGGGSGGGGSGGGGSEVQLVQSGAEVKKPGASVKVSCKASGYSFTNYYVHWVKQAPGQGLEWMGYVDPFNGDFNYNQKFKDRVTLTVDTSTSTAYMELSSLTSEDRAVYYCARGGLDWYDTSYWYFDVWGQGTLVTVSS
notes: not shown: fusion to the phage coat protein; display format not described
Kd [4]: 0.0213 nM
Kd [5]: 0.0182 nM
Kd [6]: 0.0322 nM

B3: humanized fusion protein hscFv-lh-GPVI-Fc (Fc fusion)
chain: DIQMTQSPKSLSASVGDRVTITCKASENVDTYVSWYQQKPGKAPKVLIYGASNRYTGVPSRFTGSGSATDFTLTISSLQPEDFATYYCGQSYRYPLTFAQGTKVEIKGGGGSGGGGSGGGGSEVQLVQSGAEVKKPGASVKVSCKASGYSFTNYYVHWVKQAPGQGLEWMGYVDPFNGDFNYNQKFKDRVTLTVDTSTSTAYMELSSLTSEDRAVYYCARGGLDWYDTSYWYFDVWGQGTLVTVSSQSGPLPKPSLQALPSSLVPLEKPVTLRCQGPPGVDLYRLEKLSSSRYQDQAVLFIPAMKRSLAGRYRCSYQNGSLWSLPSDQLELVATGVFAKPSLSAQPGPAVSSGGDVTLQCQTRYGFDQFALYKEGDPAPYKNPERWYRASFPIITVTAAHSGTYRCYSFSSRDPYLWSAPSDPLELVVTGTSVTPSRLPTEPPSSVAEFSEATAELTVSFTNKVFTTETSRSITTSPKESDSPAGPARQYYTKGNGGRVECPPCPAPPVAGPSVFLFPPKPKDTLMISRTPEVTCVVVDVSHEDPEVQFNWYVDGVEVHNAKTKPREEQFNSTFRVVSVLTVVHQDWLNGKEYKCKVSNKGLPAPIEKTISKTKGQPREPQVYTLPPSREEMTKNQVSLTCLVKGFYPSDIAVEWESNGQPENNYKTTPPMLDSDGSFFLYSKLTVDKSRWQQGNVFSCSVMHEALHNHYTQKSLSLSPGK
IC50 [1]: 2.7 nM
EC50 [3]: 4.7 nM

B4: single chain antibody scFv-lh (scFv, not shown: a dimerising Fc or GST)
scFv: DILMTQSPKSMSMSLGERVTLSCKASENVDTYVSWYQQKPEQSPKVLIYGASNRYTGVPDRFTGSGSATDFSLTISNVQAEDLADYHCGQSYRYPLTFGAGTKLELKGGGGSGGGGSGGGGSEVQLQQSGPDLMKPGASVKISCKASGYSFTNYYVHWVKQSLDKSLEWIGYVDPFNGDFNYNQKFKDKATLTVDKSSSTAYMHLSSLTSEDSAVYYCARGGLDWYDTSYWYFDVWGAGTAVTVSS
notes: Orientation light-heavy; Made in CHO cells and in E. coli (pET22b); also called mouse single chain antibody; parental mouse single chain antibody
IC50 [7]: 3.1 nM

B5: single chain antibody scFv-hl (scFv, not shown: large carriers)
scFv: EVQLQQSGPDLMKPGASVKISCKASGYSFTNYYVHWVKQSLDKSLEWIGYVDPFNGDFNYNQKFKDKATLTVDKSSSTAYMHLSSLTSEDSAVYYCARGGLDWYDTSYWYFDVWGAGTAVTVSSGGGGSGGGGSGGGGSDILMTQSPKSMSMSLGERVTLSCKASENVDTYVSWYQQKPEQSPKVLIYGASNRYTGVPDRFTGSGSATDFSLTISNVQAEDLADYHCGQSYRYPLTFGAGTKLELK
notes: Orientation heavy-light; Produced and purified solely from E. coli
binding result [8]: no binding
